Data reported in patent US10941182 (Amgen, dated 2021).
Starred links: 1 amine or outer side, 2 acyl side, 3 side chain; linkers in the order of their positions; H or OH if unused. Non-standard residues stand in square brackets, D forms with d. *: point of attachment. AC4Abu = α-carboxy-4-aminobutyric acid, O=C(C(CCN[*:1])C(=O)[*:3])[*:2]; Oic = O=C(O)[C@@H]1C[C@@H]2CCCC[C@@H]2N1; Phe(4-Cl) = N[C@@H](Cc1ccc(Cl)cc1)C(=O)O; γGlu = O=C(O)[C@H](CCC(=O)[*:2])N[*:1]; 1Nal = N[C@@H](Cc1cccc2ccccc12)C(=O)O; 2Nal = N[C@@H](Cc1ccc2ccccc2c1)C(=O)O; NMeR = CN[C@@H](CCCNC(=N)N)C(=O)O; Tridecanoyl = CCCCCCCCCCCCC(=O)*; Gly(N-CH2CH2OH) = O=C(O)CNCCO; Tle = CC(C)(C)[C@H](N)C(=O)O; Nle = CCCC[C@H](N)C(=O)O; AEEA = NCCOCCOCC(=O)O; βAla = NCCC(=O)O

B1: Apelin polypeptide SEQ ID NO: 449 (peptide)
peptide: Tridecanoyl-[γGlu][AEEA][AEEA]QRP[NMeR]LSH[1Nal]GP[Nle]P[Phe(4-Cl)]-OH
SMILES: CCCCCCCCCCCCC(=O)N[C@@H](CCC(=O)NCCOCCOCC(=O)NCCOCCOCC(=O)N[C@@H](CCC(N)=O)C(=O)N[C@@H](CCCNC(=N)N)C(=O)N1CCC[C@H]1C(=O)N(C)[C@@H](CCCNC(=N)N)C(=O)N[C@@H](CC(C)C)C(=O)N[C@@H](CO)C(=O)N[C@@H](Cc1c[nH]cn1)C(=O)N[C@@H](Cc1cccc2ccccc12)C(=O)NCC(=O)N1CCC[C@H]1C(=O)N[C@@H](CCCC)C(=O)N1CCC[C@H]1C(=O)N[C@@H](Cc1ccc(Cl)cc1)C(=O)O)C(=O)O
B2: Apelin polypeptide SEQ ID NO: 352 (peptide)
peptide: Tridecanoyl-[γGlu][AEEA][AEEA]QRP[NMeR]LSHKG[Oic][Nle]P[Phe(4-Cl)]-OH
SMILES: CCCCCCCCCCCCC(=O)N[C@@H](CCC(=O)NCCOCCOCC(=O)NCCOCCOCC(=O)N[C@@H](CCC(N)=O)C(=O)N[C@@H](CCCNC(=N)N)C(=O)N1CCC[C@H]1C(=O)N(C)[C@@H](CCCNC(=N)N)C(=O)N[C@@H](CC(C)C)C(=O)N[C@@H](CO)C(=O)N[C@@H](Cc1c[nH]cn1)C(=O)N[C@@H](CCCCN)C(=O)NCC(=O)N1[C@H](C(=O)N[C@@H](CCCC)C(=O)N2CCC[C@H]2C(=O)N[C@@H](Cc2ccc(Cl)cc2)C(=O)O)C[C@@H]2CCCC[C@@H]21)C(=O)O
B3: Apelin polypeptide SEQ ID NO: 439 (peptide)
peptide: Tridecanoyl-[γGlu][AEEA][AEEA]QRP[NMeR][Tle]SHKG[Oic][Nle]P[Phe(4-Cl)]-OH
SMILES: CCCCCCCCCCCCC(=O)N[C@@H](CCC(=O)NCCOCCOCC(=O)NCCOCCOCC(=O)N[C@@H](CCC(N)=O)C(=O)N[C@@H](CCCNC(=N)N)C(=O)N1CCC[C@H]1C(=O)N(C)[C@@H](CCCNC(=N)N)C(=O)N[C@H](C(=O)N[C@@H](CO)C(=O)N[C@@H](Cc1c[nH]cn1)C(=O)N[C@@H](CCCCN)C(=O)NCC(=O)N1[C@H](C(=O)N[C@@H](CCCC)C(=O)N2CCC[C@H]2C(=O)N[C@@H](Cc2ccc(Cl)cc2)C(=O)O)C[C@@H]2CCCC[C@@H]21)C(C)(C)C)C(=O)O
B4: Apelin polypeptide SEQ ID NO: 424 (peptide)
peptide: Tridecanoyl-[γGlu][AEEA][AEEA]QRP[NMeR]LSH[βAla]GP[Nle]P[Phe(4-Cl)]-OH
SMILES: CCCCCCCCCCCCC(=O)N[C@@H](CCC(=O)NCCOCCOCC(=O)NCCOCCOCC(=O)N[C@@H](CCC(N)=O)C(=O)N[C@@H](CCCNC(=N)N)C(=O)N1CCC[C@H]1C(=O)N(C)[C@@H](CCCNC(=N)N)C(=O)N[C@@H](CC(C)C)C(=O)N[C@@H](CO)C(=O)N[C@@H](Cc1c[nH]cn1)C(=O)NCCC(=O)NCC(=O)N1CCC[C@H]1C(=O)N[C@@H](CCCC)C(=O)N1CCC[C@H]1C(=O)N[C@@H](Cc1ccc(Cl)cc1)C(=O)O)C(=O)O
B5: Apelin polypeptide SEQ ID NO: 425 (peptide)
peptide: Tridecanoyl-[γGlu][AEEA][AEEA]QRP[NMeR]LSHKGP[Nle][βAla][Phe(4-Cl)]-OH
SMILES: CCCCCCCCCCCCC(=O)N[C@@H](CCC(=O)NCCOCCOCC(=O)NCCOCCOCC(=O)N[C@@H](CCC(N)=O)C(=O)N[C@@H](CCCNC(=N)N)C(=O)N1CCC[C@H]1C(=O)N(C)[C@@H](CCCNC(=N)N)C(=O)N[C@@H](CC(C)C)C(=O)N[C@@H](CO)C(=O)N[C@@H](Cc1c[nH]cn1)C(=O)N[C@@H](CCCCN)C(=O)NCC(=O)N1CCC[C@H]1C(=O)N[C@@H](CCCC)C(=O)NCCC(=O)N[C@@H](Cc1ccc(Cl)cc1)C(=O)O)C(=O)O
B6: Apelin polypeptide SEQ ID NO: 403 (peptide)
peptide: Tridecanoyl-[AC4Abu][AEEA][AEEA]QRP[NMeR]LSHKGP[Nle][2Nal]-OH
SMILES: CCCCCCCCCCCCC(=O)NCCC(C(=O)O)C(=O)NCCOCCOCC(=O)NCCOCCOCC(=O)N[C@@H](CCC(N)=O)C(=O)N[C@@H](CCCNC(=N)N)C(=O)N1CCC[C@H]1C(=O)N(C)[C@@H](CCCNC(=N)N)C(=O)N[C@@H](CC(C)C)C(=O)N[C@@H](CO)C(=O)N[C@@H](Cc1c[nH]cn1)C(=O)N[C@@H](CCCCN)C(=O)NCC(=O)N1CCC[C@H]1C(=O)N[C@@H](CCCC)C(=O)N[C@@H](Cc1ccc2ccccc2c1)C(=O)O
B7: Apelin polypeptide SEQ ID NO: 402 (peptide)
peptide: Tridecanoyl-[AC4Abu][AEEA][AEEA]QRP[NMeR]LSHKGP[Nle][Phe(4-Cl)]-OH
SMILES: CCCCCCCCCCCCC(=O)NCCC(C(=O)O)C(=O)NCCOCCOCC(=O)NCCOCCOCC(=O)N[C@@H](CCC(N)=O)C(=O)N[C@@H](CCCNC(=N)N)C(=O)N1CCC[C@H]1C(=O)N(C)[C@@H](CCCNC(=N)N)C(=O)N[C@@H](CC(C)C)C(=O)N[C@@H](CO)C(=O)N[C@@H](Cc1c[nH]cn1)C(=O)N[C@@H](CCCCN)C(=O)NCC(=O)N1CCC[C@H]1C(=O)N[C@@H](CCCC)C(=O)N[C@@H](Cc1ccc(Cl)cc1)C(=O)O
B8: Apelin polypeptide SEQ ID NO: 448 (peptide)
peptide: Tridecanoyl-[γGlu][AEEA][AEEA]QRP[NMeR]LSHHGP[Nle]P[Phe(4-Cl)]-OH
SMILES: CCCCCCCCCCCCC(=O)N[C@@H](CCC(=O)NCCOCCOCC(=O)NCCOCCOCC(=O)N[C@@H](CCC(N)=O)C(=O)N[C@@H](CCCNC(=N)N)C(=O)N1CCC[C@H]1C(=O)N(C)[C@@H](CCCNC(=N)N)C(=O)N[C@@H](CC(C)C)C(=O)N[C@@H](CO)C(=O)N[C@@H](Cc1c[nH]cn1)C(=O)N[C@@H](Cc1c[nH]cn1)C(=O)NCC(=O)N1CCC[C@H]1C(=O)N[C@@H](CCCC)C(=O)N1CCC[C@H]1C(=O)N[C@@H](Cc1ccc(Cl)cc1)C(=O)O)C(=O)O
B9: Apelin polypeptide SEQ ID NO: 467 (peptide)
peptide: Tridecanoyl-[γGlu][AEEA][AEEA]QRP[NMeR]L[Gly(N-CH2CH2OH)]HKGP[Nle]P[Phe(4-Cl)]-OH
SMILES: CCCCCCCCCCCCC(=O)N[C@@H](CCC(=O)NCCOCCOCC(=O)NCCOCCOCC(=O)N[C@@H](CCC(N)=O)C(=O)N[C@@H](CCCNC(=N)N)C(=O)N1CCC[C@H]1C(=O)N(C)[C@@H](CCCNC(=N)N)C(=O)N[C@@H](CC(C)C)C(=O)N(CCO)CC(=O)N[C@@H](Cc1c[nH]cn1)C(=O)N[C@@H](CCCCN)C(=O)NCC(=O)N1CCC[C@H]1C(=O)N[C@@H](CCCC)C(=O)N1CCC[C@H]1C(=O)N[C@@H](Cc1ccc(Cl)cc1)C(=O)O)C(=O)O
B10: Apelin polypeptide SEQ ID NO: 423 (peptide)
peptide: Tridecanoyl-[AC4Abu][AEEA][AEEA]QRP[NMeR]LS[βAla]KGP[Nle]P[Phe(4-Cl)]-OH
SMILES: CCCCCCCCCCCCC(=O)NCCC(C(=O)O)C(=O)NCCOCCOCC(=O)NCCOCCOCC(=O)N[C@@H](CCC(N)=O)C(=O)N[C@@H](CCCNC(=N)N)C(=O)N1CCC[C@H]1C(=O)N(C)[C@@H](CCCNC(=N)N)C(=O)N[C@@H](CC(C)C)C(=O)N[C@@H](CO)C(=O)NCCC(=O)N[C@@H](CCCCN)C(=O)NCC(=O)N1CCC[C@H]1C(=O)N[C@@H](CCCC)C(=O)N1CCC[C@H]1C(=O)N[C@@H](Cc1ccc(Cl)cc1)C(=O)O
B11: Apelin polypeptide SEQ ID NO: 464 (peptide)
peptide: Tridecanoyl-[γGlu][AEEA][AEEA]QRP[NMeR]L[βAla]HKGP[Nle]P[Phe(4-Cl)]-OH
SMILES: CCCCCCCCCCCCC(=O)N[C@@H](CCC(=O)NCCOCCOCC(=O)NCCOCCOCC(=O)N[C@@H](CCC(N)=O)C(=O)N[C@@H](CCCNC(=N)N)C(=O)N1CCC[C@H]1C(=O)N(C)[C@@H](CCCNC(=N)N)C(=O)N[C@@H](CC(C)C)C(=O)NCCC(=O)N[C@@H](Cc1c[nH]cn1)C(=O)N[C@@H](CCCCN)C(=O)NCC(=O)N1CCC[C@H]1C(=O)N[C@@H](CCCC)C(=O)N1CCC[C@H]1C(=O)N[C@@H](Cc1ccc(Cl)cc1)C(=O)O)C(=O)O

How the values were obtained:
[1] = biological target: T1, rat APJ receptor (rat, UniProt Q9JHG3 1-377); assay: cell-based or functional assay
T1 sequence (looked up): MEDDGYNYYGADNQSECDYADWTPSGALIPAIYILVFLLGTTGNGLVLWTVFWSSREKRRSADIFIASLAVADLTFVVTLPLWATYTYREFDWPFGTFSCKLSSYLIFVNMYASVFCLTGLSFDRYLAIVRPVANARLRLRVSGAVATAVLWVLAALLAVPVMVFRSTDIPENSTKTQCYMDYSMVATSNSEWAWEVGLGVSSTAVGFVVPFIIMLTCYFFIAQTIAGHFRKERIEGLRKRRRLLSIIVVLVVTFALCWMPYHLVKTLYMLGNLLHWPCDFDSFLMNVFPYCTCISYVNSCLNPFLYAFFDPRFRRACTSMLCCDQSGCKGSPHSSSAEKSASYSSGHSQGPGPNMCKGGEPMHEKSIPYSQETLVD

[2] = biological target: T2, human APJ receptor (human, UniProt P35414 1-380); assay: cell-based or functional assay
T2 sequence (looked up): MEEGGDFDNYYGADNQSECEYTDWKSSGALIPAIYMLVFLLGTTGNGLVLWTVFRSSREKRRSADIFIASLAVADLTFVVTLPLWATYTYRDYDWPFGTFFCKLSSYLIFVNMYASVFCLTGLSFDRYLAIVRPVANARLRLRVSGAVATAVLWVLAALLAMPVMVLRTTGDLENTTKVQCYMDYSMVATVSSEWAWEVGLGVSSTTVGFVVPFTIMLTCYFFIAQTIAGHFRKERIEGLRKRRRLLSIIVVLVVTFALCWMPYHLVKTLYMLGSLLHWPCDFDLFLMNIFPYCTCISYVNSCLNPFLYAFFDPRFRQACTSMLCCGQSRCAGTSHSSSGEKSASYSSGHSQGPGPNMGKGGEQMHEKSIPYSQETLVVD

Binder	EC50 Rat APJ Receptor (GTPγS assay) [1] [nM]	EC50 Human APJ Receptor (GTPγS assay) [2] [nM]
XXXQRPRLXHKGPXPF ({TDA}[AC4Abu][Aeea][Aeea]QRP[NMeArg]L[Pra]HKGP[Nle]P[4-Cl-F]{COOH}) [Apelin polypeptide SEQ ID NO: 450]	0.313	0.132
B1	0.47	0.394
B2	0.23	0.108
B3	3.21	2.15
B4	17.2	4.15
B5	0.157	0.0937
B6	8.1	2.63
B7	0.246	0.1
B8	0.305	0.133
B9	0.521	0.129
XXXQRPRLSHKGPXPF ({TDA}[AC4Abu][Aeea][Aeea]QRP[NMeArg]LSHKGP[Nle][aMePro][4-Cl-F]{COOH}) [Apelin polypeptide SEQ ID NO: 401]	0.351	0.0816
B10	1.18	0.645
B11	0.377	0.0542
